System: Escherichia coli TOP10
Experiment: shrunken log2 fold change of peptide-encoding DNA abundance (4.5 h post-induction vs induction); higher = less antimicrobial activity (less host growth inhibition)
Conditions: time post-induction: 4.5 h; library: site-saturation at positions 5, 18, 19, 20
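Further: peptides expressed intracellularly from a pBAD plasmid library in pooled LB shake-flask culture, induced with 0.3% L-arabinose, DNA abundance read by NGS, three biological replicates, DESeq2 with apeglm shrinkage.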

Sequence	shrunken log2 fold change
RRIRPRPPRLPRPRPRPLKRPRP	-0.161
RRIRVRPPRLPRPRPRPVHLPRP	0.0586
RRIRPRPPRLPRPRPRPCERPRP	0.0579
RRIRQRPPRLPRPRPRPDPIPRP	-0.0263
RRIRARPPRLPRPRPRPADWPRP	0.984
RRIRMRPPRLPRPRPRPVIQPRP	0.257
RRIRLRPPRLPRPRPRPQNPPRP	-0.263
RRIRERPPRLPRPRPRPLMMPRP	-0.263
RRIRLRPPRLPRPRPRPQNRPRP	-0.231
RRIRVRPPRLPRPRPRPLWQPRP	2.32
RRIRGRPPRLPRPRPRPSNNPRP	0.0994
RRIRSRPPRLPRPRPRPMPVPRP	0.0216
RRIRDRPPRLPRPRPRPGDEPRP	0.0587
RRIRPRPPRLPRPRPRPTTEPRP	0.109
RRIRSRPPRLPRPRPRPLRKPRP	0.383
RRIRYRPPRLPRPRPRPLYQPRP	-0.13
RRIRARPPRLPRPRPRPMNDPRP	0.138
RRIRARPPRLPRPRPRPLGGPRP	1.01
RRIRQRPPRLPRPRPRPKPCPRP	-0.273
RRIRERPPRLPRPRPRPEMLPRP	0.0972
RRIRHRPPRLPRPRPRPSSFPRP	0.0395
RRIRTRPPRLPRPRPRPRVIPRP	-0.12
RRIRFRPPRLPRPRPRPVHEPRP	-0.0618
RRIRDRPPRLPRPRPRPGTSPRP	-0.0025
RRIRYRPPRLPRPRPRPPMHPRP	-0.418

Sequence	shrunken log2 fold change
RRIRARPPRLPRPRPRPCSDPRP	0.431
RRIRARPPRLPRPRPRPYMVPRP	-0.583
RRIRERPPRLPRPRPRPWVYPRP	-0.157
RRIRPRPPRLPRPRPRPPCSPRP	-0.232
RRIRARPPRLPRPRPRPIIRPRP	-0.357
RRIRNRPPRLPRPRPRPCDPPRP	-0.114
RRIRDRPPRLPRPRPRPPCSPRP	0.126
RRIRMRPPRLPRPRPRPWAEPRP	0.628
RRIRNRPPRLPRPRPRPMMQPRP	-0.208
RRIRMRPPRLPRPRPRPGNCPRP	0.0879
RRIRHRPPRLPRPRPRPVVFPRP	-0.147
RRIRLRPPRLPRPRPRPYDFPRP	-0.0867
RRIRGRPPRLPRPRPRPLWCPRP	0.204
RRIRTRPPRLPRPRPRPPYDPRP	-0.398
RRIRCRPPRLPRPRPRPFFDPRP	-0.199
RRIRWRPPRLPRPRPRPDKCPRP	-0.134
RRIRVRPPRLPRPRPRPWNHPRP	-0.152
RRIRERPPRLPRPRPRPCQWPRP	-0.017
RRIRQRPPRLPRPRPRPFKFPRP	-0.00873
RRIRSRPPRLPRPRPRPDYYPRP	-0.831
RRIRHRPPRLPRPRPRPRNPPRP	0.0812
RRIRVRPPRLPRPRPRPKQCPRP	-0.141
RRIRKRPPRLPRPRPRPMMEPRP	-0.00277
RRIRVRPPRLPRPRPRPWRVPRP	0.435
RRIRDRPPRLPRPRPRPESCPRP	0.629

Sequence	shrunken log2 fold change
RRIRDRPPRLPRPRPRPMCDPRP	0.0645
RRIRIRPPRLPRPRPRPTSVPRP	-0.18
RRIRRRPPRLPRPRPRPAPYPRP	0.408
RRIRYRPPRLPRPRPRPKDMPRP	0.0203
RRIRDRPPRLPRPRPRPDKDPRP	0.0428
RRIRKRPPRLPRPRPRPNTKPRP	-0.391
RRIRSRPPRLPRPRPRPGWSPRP	0.334
RRIRGRPPRLPRPRPRPVTTPRP	1.21
RRIRDRPPRLPRPRPRPFNVPRP	-0.00548
RRIRDRPPRLPRPRPRPVSIPRP	-0.105
RRIRQRPPRLPRPRPRPIEGPRP	0.0763
RRIRGRPPRLPRPRPRPIWIPRP	0.0517
RRIRSRPPRLPRPRPRPPNDPRP	-0.0183
RRIRLRPPRLPRPRPRPEYYPRP	-0.0599
RRIRQRPPRLPRPRPRPLSYPRP	0.121
RRIRFRPPRLPRPRPRPWPQPRP	0.127
RRIRFRPPRLPRPRPRPWMGPRP	-0.592
RRIRLRPPRLPRPRPRPCGFPRP	-0.0181
RRIRFRPPRLPRPRPRPPCNPRP	-0.284
RRIRTRPPRLPRPRPRPNKFPRP	-0.37
RRIRMRPPRLPRPRPRPYKHPRP	-0.872
RRIRNRPPRLPRPRPRPPNQPRP	-0.0523
RRIRWRPPRLPRPRPRPRTQPRP	0.276
RRIRHRPPRLPRPRPRPWLSPRP	-0.0373
RRIRMRPPRLPRPRPRPNVKPRP	-0.0702

Sequence	shrunken log2 fold change
RRIRRRPPRLPRPRPRPENPPRP	0.541
RRIRCRPPRLPRPRPRPRVTPRP	0.23
RRIRARPPRLPRPRPRPCYMPRP	-0.0886
RRIRGRPPRLPRPRPRPQWTPRP	0.319
RRIRHRPPRLPRPRPRPLHIPRP	-0.453
RRIRSRPPRLPRPRPRPSFSPRP	-0.351
RRIRHRPPRLPRPRPRPSYCPRP	0.00287
RRIRYRPPRLPRPRPRPNSKPRP	-0.875
RRIRPRPPRLPRPRPRPCVVPRP	1.73
RRIRIRPPRLPRPRPRPCNKPRP	-0.47
RRIRYRPPRLPRPRPRPHCMPRP	-0.161
RRIRLRPPRLPRPRPRPHTIPRP	-0.165
RRIRKRPPRLPRPRPRPKGYPRP	-0.00627
RRIRRRPPRLPRPRPRPTTPPRP	0.463
RRIRCRPPRLPRPRPRPDRSPRP	0.208
RRIRIRPPRLPRPRPRPKLVPRP	0.116
RRIRNRPPRLPRPRPRPTPYPRP	-0.243
RRIRLRPPRLPRPRPRPWWAPRP	0.0811
RRIRFRPPRLPRPRPRPVWGPRP	0.311
RRIRPRPPRLPRPRPRPQPKPRP	0.147
RRIRTRPPRLPRPRPRPNKKPRP	-0.26
RRIRNRPPRLPRPRPRPTYRPRP	-0.0805
RRIRVRPPRLPRPRPRPATGPRP	0.119
RRIRARPPRLPRPRPRPDYNPRP	-0.57
RRIRGRPPRLPRPRPRPVLLPRP	0.122

Sequence	shrunken log2 fold change
RRIRCRPPRLPRPRPRPYFGPRP	-0.0436
RRIRHRPPRLPRPRPRPHGAPRP	-0.183
RRIRVRPPRLPRPRPRPSVAPRP	0.595
RRIRNRPPRLPRPRPRPDYDPRP	-0.0133
RRIRFRPPRLPRPRPRPYFCPRP	-1.05
RRIRTRPPRLPRPRPRPCDNPRP	-0.267
RRIRERPPRLPRPRPRPEKEPRP	0.0662
RRIRKRPPRLPRPRPRPKMRPRP	0.56
RRIRSRPPRLPRPRPRPACNPRP	-0.285
RRIRFRPPRLPRPRPRPRVVPRP	0.298
RRIRERPPRLPRPRPRPEFLPRP	0.26
RRIRSRPPRLPRPRPRPDHKPRP	-0.18
RRIRLRPPRLPRPRPRPRMHPRP	0.136
RRIRDRPPRLPRPRPRPFRSPRP	-0.0401
RRIRCRPPRLPRPRPRPNHQPRP	-0.421
RRIRSRPPRLPRPRPRPPSRPRP	0.263
RRIRRRPPRLPRPRPRPTKNPRP	0.395
RRIRVRPPRLPRPRPRPFPFPRP	-0.199
RRIRMRPPRLPRPRPRPHYDPRP	-0.135
RRIRLRPPRLPRPRPRPFGKPRP	-0.168
RRIRCRPPRLPRPRPRPGCSPRP	-0.182
RRIRDRPPRLPRPRPRPCMFPRP	-0.00227
RRIRWRPPRLPRPRPRPVIKPRP	-0.226
RRIRIRPPRLPRPRPRPNGDPRP	8.33e-05
RRIRQRPPRLPRPRPRPWWMPRP	-0.0322

— the supplement of paper PMC9112550, “Optimization of the antimicrobial peptide Bac7 by deep mutational scanning” (BMC Biology, 2022)
